How the values were obtained:
Experiment in all cases: fluorescence anisotropy
[1] = target: T1, rGyr_fl Y851F (full-length reverse gyrase) (Thermotoga maritima, UniProt O51934 1-1104, Y851F)
T1 sequence: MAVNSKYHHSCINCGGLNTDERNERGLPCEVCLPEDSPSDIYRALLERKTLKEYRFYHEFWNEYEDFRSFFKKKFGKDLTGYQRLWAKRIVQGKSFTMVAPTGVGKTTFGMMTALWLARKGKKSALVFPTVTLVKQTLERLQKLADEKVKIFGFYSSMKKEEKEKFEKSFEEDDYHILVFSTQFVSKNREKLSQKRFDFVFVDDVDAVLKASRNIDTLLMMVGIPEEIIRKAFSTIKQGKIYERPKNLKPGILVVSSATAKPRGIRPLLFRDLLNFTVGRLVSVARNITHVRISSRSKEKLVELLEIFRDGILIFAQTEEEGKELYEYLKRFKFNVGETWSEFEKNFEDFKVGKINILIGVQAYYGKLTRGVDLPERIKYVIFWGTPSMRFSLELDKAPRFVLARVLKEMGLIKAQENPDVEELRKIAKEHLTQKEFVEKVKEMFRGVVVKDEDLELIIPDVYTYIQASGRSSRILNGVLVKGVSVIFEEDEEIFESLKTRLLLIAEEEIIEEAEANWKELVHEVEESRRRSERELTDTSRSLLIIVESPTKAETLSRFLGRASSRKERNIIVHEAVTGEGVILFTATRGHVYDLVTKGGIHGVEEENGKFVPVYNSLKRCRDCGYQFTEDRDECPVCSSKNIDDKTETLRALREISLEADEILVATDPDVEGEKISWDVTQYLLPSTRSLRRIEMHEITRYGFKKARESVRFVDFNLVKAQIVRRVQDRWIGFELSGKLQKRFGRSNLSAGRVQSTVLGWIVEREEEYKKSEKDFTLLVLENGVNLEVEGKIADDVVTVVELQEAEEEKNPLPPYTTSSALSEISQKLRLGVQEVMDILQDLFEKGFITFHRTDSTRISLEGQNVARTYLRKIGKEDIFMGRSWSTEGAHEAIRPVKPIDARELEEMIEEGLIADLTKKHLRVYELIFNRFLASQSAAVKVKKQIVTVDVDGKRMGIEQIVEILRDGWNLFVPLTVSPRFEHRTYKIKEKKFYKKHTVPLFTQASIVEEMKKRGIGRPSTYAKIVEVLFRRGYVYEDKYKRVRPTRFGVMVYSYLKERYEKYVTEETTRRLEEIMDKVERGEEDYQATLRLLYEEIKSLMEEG

[2] = target: T2, rGyr_hel K106Q (Thermotoga maritima, UniProt O51934 59-541, K106Q)
T2 sequence: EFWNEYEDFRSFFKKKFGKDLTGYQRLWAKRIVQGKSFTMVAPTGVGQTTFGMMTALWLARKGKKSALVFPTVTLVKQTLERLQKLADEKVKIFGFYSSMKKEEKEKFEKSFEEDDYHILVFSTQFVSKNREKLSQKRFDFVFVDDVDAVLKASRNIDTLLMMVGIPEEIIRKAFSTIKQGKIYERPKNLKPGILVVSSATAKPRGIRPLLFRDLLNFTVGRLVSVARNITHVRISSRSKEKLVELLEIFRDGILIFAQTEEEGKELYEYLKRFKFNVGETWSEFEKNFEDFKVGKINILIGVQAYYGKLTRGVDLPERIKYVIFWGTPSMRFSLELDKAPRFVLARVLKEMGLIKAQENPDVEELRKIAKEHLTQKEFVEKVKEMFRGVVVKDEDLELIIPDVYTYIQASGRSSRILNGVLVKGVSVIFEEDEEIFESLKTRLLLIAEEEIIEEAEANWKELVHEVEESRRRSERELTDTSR

[3] = target: T3, rGyr_fl K106Q/Y851F (Thermotoga maritima, UniProt O51934 1-1104, K106Q;Y851F)
T3 sequence: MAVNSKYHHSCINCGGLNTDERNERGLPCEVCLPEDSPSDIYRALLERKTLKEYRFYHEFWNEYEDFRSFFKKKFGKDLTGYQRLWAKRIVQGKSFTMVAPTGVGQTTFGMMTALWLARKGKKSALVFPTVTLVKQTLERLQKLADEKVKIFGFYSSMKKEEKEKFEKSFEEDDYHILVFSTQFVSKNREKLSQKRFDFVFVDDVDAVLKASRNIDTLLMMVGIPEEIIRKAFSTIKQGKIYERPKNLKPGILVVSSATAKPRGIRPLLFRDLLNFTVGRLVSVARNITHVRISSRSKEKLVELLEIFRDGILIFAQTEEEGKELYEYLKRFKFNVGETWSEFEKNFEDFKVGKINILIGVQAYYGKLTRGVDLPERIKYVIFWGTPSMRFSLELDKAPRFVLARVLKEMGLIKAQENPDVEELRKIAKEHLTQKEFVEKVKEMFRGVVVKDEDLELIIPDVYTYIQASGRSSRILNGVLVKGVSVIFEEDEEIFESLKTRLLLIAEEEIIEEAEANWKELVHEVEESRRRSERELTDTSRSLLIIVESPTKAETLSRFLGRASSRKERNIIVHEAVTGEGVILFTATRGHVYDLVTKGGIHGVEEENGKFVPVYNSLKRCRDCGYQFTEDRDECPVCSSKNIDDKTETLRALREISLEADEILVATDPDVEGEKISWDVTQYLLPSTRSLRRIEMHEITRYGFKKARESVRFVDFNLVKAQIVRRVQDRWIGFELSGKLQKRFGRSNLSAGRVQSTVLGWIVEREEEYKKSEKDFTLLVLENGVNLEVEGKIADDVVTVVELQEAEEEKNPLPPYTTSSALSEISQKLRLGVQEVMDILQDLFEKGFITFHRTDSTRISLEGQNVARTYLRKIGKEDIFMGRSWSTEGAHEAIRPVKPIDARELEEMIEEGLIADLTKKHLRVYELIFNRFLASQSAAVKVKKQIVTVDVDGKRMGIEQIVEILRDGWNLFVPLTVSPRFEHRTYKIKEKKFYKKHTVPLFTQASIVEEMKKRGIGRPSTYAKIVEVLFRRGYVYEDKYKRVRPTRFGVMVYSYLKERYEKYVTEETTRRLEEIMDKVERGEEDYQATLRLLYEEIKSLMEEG

| Binder | Kd [1] | Kd [2] | Kd [3] |
| --- | --- | --- | --- |
| 60-base ssDNA (ssDNA) DNA: AAGCCAAGCTTCTAGAGTCAGCCCGTGATATTCATTACTTCTTATCCTAGGATCCCCGTT | 46 ± 8 nM |  |  |
| 60 bp dsDNA (dsDNA) DNA 1: AAGCCAAGCTTCTAGAGTCAGCCCGTGATATTCATTACTTCTTATCCTAGGATCCCCGTT DNA 2: AACGGGGATCCTAGGATAAGAAGTAATGAATATCACGGGCTGACTCTAGAAGCTTGGCTT |  | 1700 ± 200 nM | 490 ± 90 nM |

From publication PMC2566858 (Nucleic Acids Research, 2008)
